Primed or numbered codes have the meaning given here. * marks the point of attachment. Dabcyl″ = label, CN(C)c1ccc(/N=N/c2ccc(C(=O)*)cc2)cc1
What was measured:
elastase = biological target: T1, elastase (Homo sapiens, UniProt P08246); experiment: HE1-Affigel bead HRP release spin through assay with elastase; format: biochemical; conditions: 5 μg/ml elastase, 5 minutes; ABTS substrate over 5 minutes
T1 sequence (P08246 30-267): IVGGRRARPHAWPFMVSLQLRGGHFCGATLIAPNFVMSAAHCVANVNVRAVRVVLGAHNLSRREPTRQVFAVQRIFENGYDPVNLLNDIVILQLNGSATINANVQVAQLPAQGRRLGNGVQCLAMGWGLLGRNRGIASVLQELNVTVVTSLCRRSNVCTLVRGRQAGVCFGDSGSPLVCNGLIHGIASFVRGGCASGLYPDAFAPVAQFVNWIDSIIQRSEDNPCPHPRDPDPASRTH
Description: The peptide was tested for activity by conjugating one end to Affigel 10 beads (BioRad) and the other end to HRP reporter enzyme. The sequence of the HE1 peptide used for this assay was H2N-PFPQANYITYC-OH) (SEQ ID NO: 9). The activity was measured by detecting the release of HRP from the beads in a spin through assay. Testing was performed with 20 μl of a 1:10 dilution of HE1-Affigel beads reacted with 5 μg/ml elastase in 200 μl total volume for 5 minutes.

Pseudomonas aeruginosa = experiment: HE1-Affigel bead HRP release specificity test with overnight grown culture; format: biochemical; conditions: 100 μl overnight grown culture; ABTS over 5 minutes
Description: (§1) Specificity was tested with 20 μl of a 1:10 dilution of the Affigel beads reacted with 100 μl media control or overnight grown culture of Pseudomonas aeruginosa, Streplococcus pyogenes, Escherichia coli, and Enterococcus faecalis in 200 μl total volume, as described above. The samples were spun down and a 20 μl aliquot measured in 500 μl total volume ABTS over 5 minutes.

bacterial proteases = experiment: HE1 specificity versus bacterial proteases; format: biochemical
Description: as §1

papain = biological target: T2, papain (Carica papaya, UniProt P00784); experiment: PAIN1 FRET assay with papain-containing ointment ACCUZYME; format: biochemical; conditions: 10 μl of 120 mg/ml ACCUZYME, over one hour
T2 construct: purchased DPT Laboratories ACCUZYME
T2 sequence (P00784 134-345): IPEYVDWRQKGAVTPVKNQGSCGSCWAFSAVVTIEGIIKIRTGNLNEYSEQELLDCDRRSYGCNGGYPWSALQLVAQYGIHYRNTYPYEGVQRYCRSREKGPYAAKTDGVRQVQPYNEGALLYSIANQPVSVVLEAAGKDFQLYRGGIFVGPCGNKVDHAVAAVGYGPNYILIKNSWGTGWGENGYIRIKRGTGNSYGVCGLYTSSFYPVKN
Description: (§2) PAIN1 was designed from a high throughput screen. The peptide was tested in the FRET format with the fluorescent dye Edans attached to one end of the peptide and the quencher Dabcyl attached to the other end of the peptide. The sequence of the PAIN1 peptide used for this assay was NH2-E(Edans) PMPPLCTSMK(Dabcyl)-COOH (SEQ ID NO: 10). Cleavage of the peptide substrate by papain will produce a fluorescent signal. The peptide was tested using 5 μl of a 5 mg/ml solution with 10 μl of overnight grown bacterial culture or with 10 μl of 120 mg/ml ACCUZYME®, a papain-containing debriding ointment (DPT Laboratories), in 100 μl total volume. The bacteria cultures tested were Pseudomonas aeruginosa (PA14), Streptococcus pyogenes (grown in BHI and TSB media), E. coli, Enterococcus faecalis, and Serratia marcesens. The relative fluorescence is shown over one hour. […] In particular, the bacteria that appear to cross-react the most with PAIN1 were Pseudomonas aeruginosa and Streptococcus pyogenes.

[1] = system: Pseudomonas aeruginosa (PA14); experiment: PAIN1 FRET assay with overnight grown bacterial culture; format: biochemical; conditions: 10 μl overnight grown culture, over one hour
Description: as §2

Streptococcus pyogenes = experiment: as above; format: biochemical; conditions: 10 μl overnight grown culture, over one hour
Description: as §2

[2] = biological target: T3, human neutrophil elastase (Homo sapiens, UniProt P08246); experiment: FRET protease assay of bacterial peptide substrates with human neutrophil elastase (cross-reactivity); format: biochemical
T3 sequence (P08246 30-267): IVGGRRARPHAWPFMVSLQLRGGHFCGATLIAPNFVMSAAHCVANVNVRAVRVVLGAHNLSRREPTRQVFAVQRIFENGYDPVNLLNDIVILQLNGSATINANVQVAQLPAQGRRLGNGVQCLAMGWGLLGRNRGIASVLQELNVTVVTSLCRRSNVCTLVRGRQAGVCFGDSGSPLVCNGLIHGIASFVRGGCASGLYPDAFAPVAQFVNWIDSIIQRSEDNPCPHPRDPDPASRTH
Description: Based on the concentration of elastase from human wound fluid, it was determined whether this amount of elastase (0-50 μg/ml) would cause false positives in a protease assay using fluorescence resonance energy transfer (FRET) with peptides that are specific substrates for bacteria (FIGS. 3A-3C). Broad spectrum pathogen peptides such as CPI2 (peptide sequence EGAMFLEAIPMSIPK (referred to herein as SEQ ID NO: 3)) (that reacts with Staphylococcus aureus, Proteus mirabilis, Pseudomonas aeruginosa, Enterococcus faecalis, and Streptococcus pyogenes) were studied. Specific peptides for Pseudomonas aeruginosa (E8 (peptide sequence […] (referred to herein as SEQ ID NO: 4)) and G6 (peptide sequence EAAHQSALQSAK (referred to herein as SEQ ID NO: 5))), Staphylococcus aureus (SAP2 (peptide sequence […] (referred to herein as SEQ ID NO: 6)), Escherichia coli (T2 (peptide sequence EVSRRRRRGGK (referred to herein as SEQ ID NO: 7)) and T3 (peptide sequence KKASEVSRRRRRGGK (referred to herein as SEQ ID NO: 8)) were also studied. The […] were tested with three concentrations of human neutrophil elastase. The peptide substrates were tested in the FRET format with the fluorescent dye Edans attached to one end of the peptide and the quencher Dabcyl attached to the other end of the peptide. In this FRET assay format, amino acids are added to the terminals of the peptides to introduce the FRET assay dye. For example, an “E” is added to the N terminal and a “K” is added to the C terminal. For example, the “E” can be (E-EDANS) and the “K” can be (K-Dabcyl). Cleavage of the peptide substrate by human neutrophil elastase will produce a fluorescent signal.

[3] = biological target: T4, PAIN1 peptide (NH2-E(Edans) PMPPLCTSMK(Dabcyl)-COOH)
T4 chain: PMPPLCTSMK

[4] = biological target: T5, CPI2 (peptide sequence EGAMFLEAIPMSIPK)
T5 chain: EGAMFLEAIPMSIPK

[5] = biological target: T6, E8 (peptide sequence EQADALHDQASALK)
T6 chain: EQADALHDQASALK

[6] = biological target: T7, G6 (peptide sequence EAAHQSALQSAK)
T7 chain: EAAHQSALQSAK

[7] = biological target: T8, SAP2 (peptide sequence ETKVEENEAIQK)
T8 chain: ETKVEENEAIQK

[8] = biological target: T9, T2 (peptide sequence EVSRRRRRGGK)
T9 chain: EVSRRRRRGGK

[9] = biological target: T10, T3 (peptide sequence KKASEVSRRRRRGGK)
T10 chain: KKASEVSRRRRRGGK

Q: Which “HRP release signal at 405 nm” value (elastase) does the source give for “H2N-PFPQANYITYC-OH (H-PFPQANYITYC-OH) [HE1]” here?
A: clear signal

Q: What about the “HRP release signal at 405 nm” value (Pseudomonas aeruginosa) of the same molecule?
A: very minor increase

Q: And the “cross-reaction with bacterial proteases” value (bacterial proteases)?
A: not cross react

Q: Which relative fluorescence response (papain) does the source give for “NH2-E(Edans) PMPPLCTSMK(Dabcyl)-COOH ({E(Edans)}-PMPPLCTSMK(Dabcyl″)-OH) [PAIN1]” here?
A: high response

Q: What about the relative fluorescence response [1] of the same molecule?
A: lower but significant responses

Q: What about the relative fluorescence response (Streptococcus pyogenes) of the same molecule?
A: lower but significant responses

Q: “EQADALHDQASALK (Pseudomonas aeruginosa E8-related peptide)” was tested. Which “cross-reactivity with elastase (fluorescent signal)” value (“cross-reactivity with elastase” for short) ([2]; 50 μg/ml of elastase, FIG. 3C) did it give?
A: cross-reacted

Q: For EGAMFLEAIPMSIPK (CPI2-related peptide), which “cross-reactivity with elastase” value ([2]; 50 μg/ml of elastase, FIG. 3C) is on record?
A: cross-reacted

Q: What about the “cross-reactivity with elastase” value ([2]; Five μg/ml of elastase, FIG. 3B) of the same molecule?
A: small response

B1: papain (in ACCUZYME, a papain-containing debriding ointment, DPT Laboratories) (protein)
chain: IPEYVDWRQKGAVTPVKNQGSCGSCWAFSAVVTIEGIIKIRTGNLNEYSEQELLDCDRRSYGCNGGYPWSALQLVAQYGIHYRNTYPYEGVQRYCRSREKGPYAAKTDGVRQVQPYNEGALLYSIANQPVSVVLEAAGKDFQLYRGGIFVGPCGNKVDHAVAAVGYGPNYILIKNSWGTGWGENGYIRIKRGTGNSYGVCGLYTSSFYPVKN
Q: How did the “FRET peptide cleavage (relative fluorescence over one hour), 10 ul of 120 mg/ml ACCUZYME” value [3] turn out when B1 was run?
A: A high response was seen with papain ointment

B2: human neutrophil elastase (protein)
chain: IVGGRRARPHAWPFMVSLQLRGGHFCGATLIAPNFVMSAAHCVANVNVRAVRVVLGAHNLSRREPTRQVFAVQRIFENGYDPVNLLNDIVILQLNGSATINANVQVAQLPAQGRRLGNGVQCLAMGWGLLGRNRGIASVLQELNVTVVTSLCRRSNVCTLVRGRQAGVCFGDSGSPLVCNGLIHGIASFVRGGCASGLYPDAFAPVAQFVNWIDSIIQ
Q: Which “FRET peptide cleavage (fluorescent signal), 500 ng/ml elastase” value (“FRET peptide cleavage … 500 ng/ml elastase” for short) [4] does the source give for B2 here?
A: no signal on any of the peptides when tested with 500 ng/ml of elastase

Q: And the “FRET peptide cleavage (fluorescent signal), 5 ug/ml elastase” value [4]?
A: Five µg/ml of elastase cross-reacted with the broad spectrum peptide CPI2 (small response)

Q: What about the “FRET peptide cleavage (fluorescent signal), 50 ug/ml elastase” value [4] of the same molecule?
A: 50 µg/ml of elastase cross-reacted with both peptides CPI2 and E8

Q: And the “FRET peptide cleavage … 500 ng/ml elastase” value [5]?
A: no signal on any of the peptides when tested with 500 ng/ml of elastase

Q: And the “FRET peptide cleavage (fluorescent signal), 50 ug/ml elastase” value [5]?
A: 50 µg/ml of elastase cross-reacted with both peptides CPI2 and E8

Q: And the “FRET peptide cleavage … 500 ng/ml elastase” value [6]?
A: no signal on any of the peptides when tested with 500 ng/ml of elastase

Q: And the “FRET peptide cleavage … 500 ng/ml elastase” value [7]?
A: no signal on any of the peptides when tested with 500 ng/ml of elastase

Q: And the “FRET peptide cleavage … 500 ng/ml elastase” value [8]?
A: no signal on any of the peptides when tested with 500 ng/ml of elastase

Q: What about the “FRET peptide cleavage … 500 ng/ml elastase” value [9] of the same molecule?
A: no signal on any of the peptides when tested with 500 ng/ml of elastase
